Here are results for 25 sequences from a protein production outcome set (Wang et al. 2014).

The series can be described thus: label from the status in PepcDB records.
In the case of “MASFPHPGSVTVCEINRDLITAQNLSDERAQETYGKVLGMVFSPVSFDSTPSSLQENEGQENGDKASGESKGLVATLQMKVADSLKQILQPTDVTLLSEIDLQGVSWHQGKHIIAFISGANQVTIRDYEDKDEKEPCILTSDSQRNVKALEWRPNGGKSLSIACRGGICIWAASYPGNMALVRSGGSALRGSLSRGSGTRWILVDFLRCQNDEQISALSWSPCGRYLASASYDSSSFTIWDVSQGAGTPIRRGLGGISMLKWSPTGDYFFAARFDGTFCLWETNTWTSEPWSLSSGSGSVTGAIWDPEGRFILISFSKSSTLGSVHFSSKPPSLDAHLLPVELPEIASLTGCEGIEKIAWDASGERLAVSYKGGDENYKGLIAIYDTRRTPIVSASLVGFIRGPGENPKALSFSFHDKFKQGPLLSVCWSTGFCCTYPLIFRSHVLP”, the protein production entry was “failed”.

Regarding “MASGKSIMGGLPPLKPGEKLPRLQTVIATSPENPAGDPNIRPQQAGEAAGKVIGGGLGVLLVTVCVLLLLGPVLWAPGWAGLRVARFLSGPWQPWLAGFAAFVAVAVLQTFLLIQRHPALRYPIVTLFSVLWVGGLWLEFNSPRHDWVTTAPTLQMPGPWSWALIISGSVVYAGIYLLALAPVGKSRWARRWQLLK”, the protein production result was “failed”.

Turning to “MASGLFENDGIKDNKARDFFYSHSSLIVFFLLLLGFGYYLGKLLFGGSSLEVYLDLRDKHERLQQEITELQSKNVRLQKRLFELKELRPRD”, the protein production entry was “failed”.

Take “MASGLSEIGSTKMFDGYNKRYKHFSETLGCSMTFSIYFPPSASSSHKSPVLYWLSGLTCTDENFIIKSGAQRAASTHGIALVAPDTSPRGLNVEGEADSYDFGVGAGFYLNATQEKWKNWRMYDYVVKELPKLLSENFSQLDTTKASISGHSMGGHGALTIYLRNLDKYKSVSAFAPITNPINCAWGQKAFTNYLGDNKAAWEEYDATCLISKYNNLSATILIDQGENDQFYPDQLLPSKFEEACKKVNAPLLLRLHPGYDHSYYFIATFIEDHISHHAQALEL”: the protein production result is given as “failed”.

For the sequence “MASGMGVDENCVARFNELKIRKTVKWIVFKIENTKIVVEKDGKGNADEFRGALPANDCRFGVYDCGNKIQFVLWCPDNAPVKPRMTYASSKDALLKKLDGATAVALEAHEMGDLAALA”, the protein production result is reported as “failed”.

“MASGNAGDTACLPAMVQAASLTAQQLLQQHWGYPAFRPGQAEIVEAIAQGRDCLIIWPTGGGKSLCFQVPALLRSGLTIVVTPLIALIENQVADLQARGIAAACLHSQMAPRDRKAVLQKLPQLKLLYLAPETLLSTPLWSRLTEPTIAIAGLILDEAHCLLQWGESFRPTYLRLGAIRPALVRLGKPSFPIAAFTATAYPQEVARLSQILQLQQPQRHQRDPYRSNLVLAVKTVWTPRQRQNQLLDFLAKHQGQSGLIYLRSRRDCETWADRLRNRGYRCAAYHAGVSDRERRQIEQAWQTGSLPFAVCSSAFGMGIDKRDVRWVAHVHPPLLLSEYLQEVGRGGRDQQRAQGLTLVSEPSGWLDPSDRDRWQGFQQATQQQWEAAQRQAQQLPASGDLRSLASSNELDLALAYLQRLGQLQWLDPFRYRRRAIPTPRPAPRLDLQPLRQFLYSRDCRWRSLLQSFGSNHPTTWRCGHCDRCQTTG”: the protein production entry is on record as “failed”.

For “MASGSMSSYGSGSWTVKQNKAFERALAVYDQDTPDRWHNVARAVGGKTPEEAKRQYDLLVRDIESIENGHVPFPDYKTTTGNSNRGRLRDEEKRMRSMKLQ”, the protein production entry is reported as “failed”.

Regarding “MASHDHHHHHHDHEHDHEKSDGGEGKASWVGKDGKVYHSHDGLAPHSHEPIYSPGYFSRRAPPLHDRNFSERAFTVGIGGPVGTGKTALMLALCRFLRDKYSLAAVTNDIFTKEDGEFLVKNGALPEERIRAVETGGCPHAAIREDISINLGPLEELSNLFKADLLLCESGGDNLAANFSRELADYIIYIIDVSAGDKIPRKGGPGITQADLLVINKTDLAAAVGADLSVMERDSLRMRDGGPFVFAQVKHGLGVEEIVNHVMHSWEHATGKKRQ”, the protein production entry is “not failed”.

As for “MASHQEQSYKAGETRGKAQEKTGEAMGTMGDKTQAAKDKTQETAQSAQQKAHETAQSAKDKTSQAAQTTQERAQESKDKTGSYMSETGEAIKNKAHDAAEYTKETAEAGKEKTSGILGQTGEQVKQMAMGATDAVKHTLGLRTDEGNKEHVSSAPSTTTTTTTRETQRK”, the protein production result is “failed”.

As for “MASILFFEKPGCQNNTRQKAWLELSGHTVDAVNILEYAWTKEELSLYLGENPISACFNPAAPEVKTGSMKPELLNKEDALDAMIKKPLLIRRPLLKIGNHYLQGFDTAVLRTIIS”, the protein production entry was “failed”.

Take “MASKPVDVMVVNFNTAGLLQPMFDALRRADSERLASYLVVDNASRDDSVQRMAQVCPEALLLSNKQNVGFGRANNQLLAHLKGKYALLLNTDAFVAADSLQKTLDYMDAHPECGVLGVRLEGRDGDLQPSCRYFPTPLNVFVGRTGLGRFFPGVKMVDDMNWDHASVRECDWLPGCFYLVRREVLDKVGLFDPRYFLYYEEVDHCKRVKEAGWKVVFYPHTTVVHIGGESSKSVAELEAASRQISSYQIESELLYFRKHHGVAGLALHMLLVTLGDLVLALKALLKRRGWGAIQACWRHCRATWSLLFKTRYASQPTR”: the protein production entry is “failed”.

Regarding “MASLLQGFEEVQLVKPVGKTVLTVTDSAIRFNKATAEALGFPAYVKVLINDKTRQIAVTPTTAKAGNAIKFSKPEGKQAASVSVKEATFIEAVKAYLTLPEAPEGEIAYQSVNGTAYPESKTVIFDVANATAGTMKLEHHHHHH”, the protein production entry is reported as “not failed”.

Turning to “MASLSELAVFIAVAEQGSFVGAGRVLGVSASAVGKRISRLEVDLGVRLLQRNTRSLALTAEGETVLSRGRSLLDEAESLRVVLERSSRQPGGVLRLSLPPIGGVLMAELAAFRQRYPEVALELDYSERNVDIIEEGFDAAIRVGAGDDGKLRSLALPGFRRLIVAAPDYLVRHGQPRSAAQLAEHQLIHYRSPNSGKLEAWPLVNAELPRALVCNSVHARLDFALQGQGIACLPDISIRRELEDGSLRPLLGSENGEKVVLRLLWPSSRGLSARMEAFLGFMRERSGAAPCENFKVRA”, the protein production result is reported as “failed”.

Take “MASLSYPKTTMQIQLGANLKPYHTFGIEQLAAQLVVAESIDDLKALYCSAEWASLPKLIIGKGSNMLFTCHYTGMIVVNRLNGIEHQQDDDYHRLHVAGGEDWPSLVSWCVEQGIGGLENLALIPGCAGSAPIQNIGAYGVEFKDVCDYVEYLCLETGTVKRLTMEECQFGYRDSIFKHQLYQKAVVTAVGLKFAKAWQPIIQYGPLKDLSSDCAIHDVYQRVCATRMEKLPDPAVMGNAGSFFKNPVISQQAFARLQIEHPDVVAYPAEQGVKVAAGWLIDQAGLKGHQIGGAKVHPKQALVIVNTGDASAQDVLMLAADIQQRVFNCYGIELEHEVRFIGESEETNLKQWMSEQA”: the protein production result is on record as “not failed”.

As for “MASMDVEEFIGQNRQLADRVEAFRGFSESDKHWKGRREFIFRNMADFPEPQVDHLLALSMVWQNHVFMGCRYSSELLQRVMEMAEGIEVEDAPVFKTRDEIIRQQKQR”, the protein production entry is recorded as “failed”.

In the case of “MASNMDREMILADFQACTGIENIDEAITLLEQNNWDLVAAINGVIPQENGILQSEYGGETIPGPAFN”, the protein production entry is listed as “failed”.

On to “MASNRCAVCKILNETCAPMCIYAPHFPSNDASFKVIIQIFGAVNVCNILDNLEFPEQREIAANCLRYAAEARIRNPISGCHDMILQYKNILNNVEQDIESAVNELGTYVGHDQVPKFYDLPMPDDFLMTPVSLDSFIAKIKSLNEVQKNQLMQLPTAADNAPMIMNSIFGKMEDKNLKDGHRADGASTSAGK”, for which the protein production entry is on record as “failed”.

Regarding “MASNRGAGGSLYGGADPYRSREGLSTRNASGSEEIQLRIDPMHSDLDDEILGLHGQIAQEIGSEAKSQRDFLDELQMTLIRAQAGVKNNIRKLNLSIIRSGNNHIMHVVLFALLLFFILYMWSKMFKR”, the protein production result is listed as “failed”.

Consider “MASQIDQYAVFGNPINHSKSPFIHTLFARQTQQSMIYTAQCVPVDGFTEAAKHFFAQGGRGCNVTVPFKEEAYRFADRLTERARLAGAVNTLKKLDDGEILGDNTDGEGLVQDLLAQQVLLKGATILLIGAGGAARGVLKPLLDQQPASITVTNRTFAKAEQLAELVAAYGEVKAQAFEQLKQSYDVIINSTSASLDGELPAIDPVIFSSRSVCYDMMYGKGYTVFNQWARQHGCAQAIDGLGMLVGQAAESFMLWRGLRPGTKQILRELRKNLEGAL”, for which the protein production result is recorded as “not failed”.

Turning to “MASQTNQTVVDTKKIETENPPKPQVPASSCRKRVKDDNATFFANLKDHMDEFIHASMDEHKTCFKNTMDKIFGSFSKAEAVAEKQIEAKEVVEIHSPLQTAVTK”, the protein production entry is listed as “not failed”.

For the sequence “MASRGRRPEHGGPPELFYDETEARKYVRNSRMIDIQTRMAGRALELLYLPENKPCYLLDIGCGTGLSGSYLSDEGHYWVGLDISPAMLDEAVDREIEGDLLLGDMGQGIPFKPGTFDGCISISAVQWLCNANKKSENPAKRLYCFFASLFSVLVRGSRAVLQLYPENSEQLELITTQATKAGFSGGMVVDYPNSAKAKKFYLCLFSGPSTFIPEGLSENQDEVEPRESVFTNERFPLRMSRRGMVRKSRAWVLEKKERHRRQGREVRPDTQYTGRKRKPRF”, the protein production result was “failed”.

As for “MASSALCFFLMSDLFEPPPDFPARSALRRDCTACGACCSAPDIHALGKPLGVPCRFLGAENTQGACLCGIYLERPAVCRSYAPDWVCGEVAPLPTLEARIRRFLEIYGLDPVTGLEHHHHHH”, the protein production result is given as “failed”.

On to “MASSDVLRQPDKNARPLALSGHVGFDSLPDQLVNKSTSQGFCFNILCIGETGIGKSTLMDTLFNTNFENFESSHFEPKVKLRAQTYDLQESNVRLKLTVVNTVGFGDQMNKQESYQHIVDYIDTQFESYLQEELKIKRSLHNYHDSRIHACLYFIAPSGHSLKSLDLVTMKKLDSKVNIIPVIAKADTISKSELHKFKIKIMSELVSNGVQIYQFPIDDETVAKINTAMNGHLPFAVVGSTEEVNIGNKMVKARQYPWGVVQVENENHCDFVKLREMLICVNMEDLREQTHTRHYELYRRCKLEEMGFKDTDPECKPVSLQQTYEAKRQEFLGELQRREEEMRQTFVQRVKEKEAELKDAERELQGKFEQLKRLHADEKSKLEEKRRSLEEEMSVFSKRKAATELLQAQSFNTSTNNKKDKDRKNSGFM”, for which the protein production entry is on record as “not failed”.

Regarding “MASSEGLASVDPWSFRQNFNIDSWLLSDSFSHDSDILAKALHRSISTSTESSPLSPSSFFDSSTAAVDFSPPQTLSNVSFGSDPEIPAASALGLGKRKRGPGVSGGKQTKRRSRVSNKKSQTTFITADAANFRQMVQQVTGAKFLGSSNSIFAPIVKPEPHRLASRLPPSCGNLDRSSAVPTLDTSSFLSNHHQENIITDLGAPTGSFHHQSSAGTTTANVGGGSSAVELDSYPSFPTLESWKVM”, the protein production entry was “failed”.

In the case of “MASSLTKDSVTPGTPGTEKTFFGHPRGLATLFMTEMWERFSYYGMRALLPLYLVAPGGLGLGAGTATAIYSVYLSLVYLLTMPGGWFGDRVWGPRKTVAIAGGVIMLGHLTLALPSSGTFYAGLGLVAIGSGLLKANISTMVGQLYDGPDDPRRDGGFTVFYMGINLGAFAAPLTIGTIGENVNWHLGFALAAVGMGLGVLQFLIGSRHLAPHSSAVPKPLSVEEKTSTLRKAAFWAALAVVFYAIVGFSGHYTLNWILVPLTLLGVIIPVLVLTNIKRDKSLDRAEQSKMSAYIWFFVAAAVFWMIYDQGGSTLSLFADSSADNSVFGWSFPVSWYQSVNPVIIMALAPVFATVWLALNRRGKEPSTVVKFCGGLVLVGASFFLFLAPLGIAEGGHKAAAMWLVAIYFVQTCGELMLSPVGLSVTTKMAPVKYASQMMGVWFLAVTAGDATTGLLSIAGVDLNKTGIVAAEATLAVVAGVAIWMYRKRVKELMGDVR”, the protein production entry is given as “failed”.
